Holding throughout (test): SEC-MALS
Data set [1] concerns the target Mouse arrestin-1-(F86A,F198A, A349V) (mouse) (UniProt P20443).
The target of data set [2] is Mouse arrestin-1-(F86A,F198A) (mouse) (UniProt P20443).
Data set [3] concerns the molecule itself.
Data set [4] concerns the molecule itself. This is another data set of the same source.
Data set [5] deals with the molecule itself. This is another data set of the same source.
Data set [6] deals with the molecule itself. This is another data set of the same source.

Read-outs that look alike come from different tables or passages of the source.

One may read the Kd as the concentration at which binding is half-saturated. A lower Kd goes with tighter binding. In general, stoichiometry N refers to a count of units in the complex or per binding partner. In data set [1], “Mouse arrestin-1-(F86A,F198A, A349V) (from UniProt P20443 1-403) (natural protein)” had a Kd of 724 µM, a log Kdim (association constant) of 3.14 and a stoichiometry N of 2.

As for “Mouse arrestin-1-(F86A,F198A) (from UniProt P20443 1-403) (natural protein)”, in data set [2], the Kd worked out at 537 µM, the log Kdim (association constant) is 3.27 and the stoichiometry N was 2.

B1: wild type human arrestin-1 (natural protein, UniProt P10523 1-405, looked up)
chain: MAASGKTSKSEPNHVIFKKISRDKSVTIYLGNRDYIDHVSQVQPVDGVVLVDPDLVKGKKVYVTLTCAFRYGQEDIDVIGLTFRRDLYFSRVQVYPPVGAASTPTKLQESLLKKLGSNTYPFLLTFPDYLPCSVMLQPAPQDSGKSCGVDFEVKAFATDSTDAEEDKIPKKSSVRLLIRKVQHAPLEMGPQPRAEAAWQFFMSDKPLHLAVSLNKEIYFHGEPIPVTVTVTNNTEKTVKKIKAFVEQVANVVLYSSDYYVKPVAMEEAQEKVPPNSTLTKTLTLLPLLANNRERRGIALDGKIKHEDTNLASSTIIKEGIDRTVLGILVSYQIKVKLTVSGFLGELTSSEVATEVPFRLMHPQPEDPAKESYQDANLVFEEFARHNLKDAGEAEEGKRDKNDVDE
With B1, the Kd was 2.95 µM in “SEC-MALS [3]” and 224 µM in “SEC-MALS [4]”.

B2: wild type mouse arrestin-1 (natural protein, UniProt P20443 1-403, looked up)
chain: MAACGKTNKSHVIFKKVSRDKSVTIYLGKRDYVDHVSQVEPVDGVVLVDPELVKGKKVYVTLTCAFRYGQEDIDVMGLTFRRDLYFSRVQVYPPVGAMSVLTQLQESLLKKLGDNTYPFLLTFPDYLPCSVMLQPAPQDVGKSCGVDFEVKAFASDITDPEEDKIPKKSSVRLLIRKVQHAPPEMGPQPSAEASWQFFMSDKPLNLSVSLSKEIYFHGEPIPVTVTVTNNTDKVVKKIKVSVEQIANVVLYSSDYYVKPVASEETQEKVQPNSTLTKTLVLVPLLANNRERRGIALDGKIKHEDTNLASSTIIKEGIDRTVMGILVSYHIKVKLTVSGFLGELTSSEVATEVPFRLMHPQPEDPAKESVQDENLVFEEFARQNLKDTGENTEGKKDEDAGQDE
In the case of B2, the “stoichiometry N” value in “SEC-MALS [5]” is 2; in “SEC-MALS [6]”, 4. Further, the Kd in “SEC-MALS [3]” turned out to be 57.5 µM; in the data set “SEC-MALS [4]”, 63.1 µM.
